B1: BHA10 scFv VH44:VL100 NH-Hercules bispecific antibody (bispecific antibody)
heavy: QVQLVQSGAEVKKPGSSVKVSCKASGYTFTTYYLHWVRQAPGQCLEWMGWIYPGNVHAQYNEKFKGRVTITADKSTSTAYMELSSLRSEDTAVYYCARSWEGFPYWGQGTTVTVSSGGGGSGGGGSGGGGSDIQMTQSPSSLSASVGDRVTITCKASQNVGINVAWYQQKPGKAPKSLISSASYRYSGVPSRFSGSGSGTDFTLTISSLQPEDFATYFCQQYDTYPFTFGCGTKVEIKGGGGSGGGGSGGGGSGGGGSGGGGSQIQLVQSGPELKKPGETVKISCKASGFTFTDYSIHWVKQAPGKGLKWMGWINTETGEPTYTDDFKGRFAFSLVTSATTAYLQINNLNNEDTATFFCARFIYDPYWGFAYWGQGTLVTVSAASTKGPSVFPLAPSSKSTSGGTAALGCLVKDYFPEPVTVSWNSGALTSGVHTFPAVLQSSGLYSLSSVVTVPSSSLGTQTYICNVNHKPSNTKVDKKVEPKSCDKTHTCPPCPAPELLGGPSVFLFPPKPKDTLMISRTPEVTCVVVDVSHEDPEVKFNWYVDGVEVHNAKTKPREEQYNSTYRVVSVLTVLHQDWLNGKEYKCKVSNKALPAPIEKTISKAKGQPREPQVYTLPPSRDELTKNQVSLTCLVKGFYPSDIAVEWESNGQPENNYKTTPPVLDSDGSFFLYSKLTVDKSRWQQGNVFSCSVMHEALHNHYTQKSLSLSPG
light: QLVLTQSSSVSFSLGASAKLTCTLSSQHSTYTIEWYQQQPLKPPKYVMELKKDGSHSTGDGIPDRFSGSSSGADRYLSISNIQPEDEAIYICGVGDTIKEQFVYVFGGGTKVEIKRTVAAPSVFIFPPSDEQLKSGTASVVCLLNNFYPREAKVQWKVDNALQSGNSQESVTEQDSKDSTYSLSSTLTLSKADYEKHKVYACEVTHQGLSSPVTKSFNRGEC
notes: BHA10 scFv (anti-LTβR) joined by a (Gly4Ser)5 linker to the N-terminus of the chimeric 14A2 IgG1 (anti-TRAIL R2) heavy chain; also called N-Hercules with VH44:VL100 BHA10 scFv; N-"Hercules" Cys
B2: BHA10 scFv VH44:VL100/(Gly4Ser)4 NH-Hercules bispecific antibody (bispecific antibody, human IgG1, kappa)
heavy: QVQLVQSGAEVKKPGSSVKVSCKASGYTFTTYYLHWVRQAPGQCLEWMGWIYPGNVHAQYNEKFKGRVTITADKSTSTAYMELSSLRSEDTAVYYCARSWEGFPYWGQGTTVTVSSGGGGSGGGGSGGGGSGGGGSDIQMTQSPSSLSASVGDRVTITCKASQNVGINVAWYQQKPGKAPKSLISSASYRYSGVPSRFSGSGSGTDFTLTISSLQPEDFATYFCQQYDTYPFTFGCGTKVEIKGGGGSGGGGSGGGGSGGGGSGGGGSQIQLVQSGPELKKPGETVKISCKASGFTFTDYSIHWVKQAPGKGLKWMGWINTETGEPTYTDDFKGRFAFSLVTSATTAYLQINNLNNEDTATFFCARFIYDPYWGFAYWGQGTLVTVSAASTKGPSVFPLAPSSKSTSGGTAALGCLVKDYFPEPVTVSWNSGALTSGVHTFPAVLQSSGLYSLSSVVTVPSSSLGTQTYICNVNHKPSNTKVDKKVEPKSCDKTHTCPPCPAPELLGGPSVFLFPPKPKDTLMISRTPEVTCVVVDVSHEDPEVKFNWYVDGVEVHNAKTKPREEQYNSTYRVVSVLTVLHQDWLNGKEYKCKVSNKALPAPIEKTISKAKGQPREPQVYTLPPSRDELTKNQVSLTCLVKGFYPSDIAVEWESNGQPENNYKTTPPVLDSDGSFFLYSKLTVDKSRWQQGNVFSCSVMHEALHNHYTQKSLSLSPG
light: QLVLTQSSSVSFSLGASAKLTCTLSSQHSTYTIEWYQQQPLKPPKYVMELKKDGSHSTGDGIPDRFSGSSSGADRYLSISNIQPEDEAIYICGVGDTIKEQFVYVFGGGTKVEIKRTVAAPSVFIFPPSDEQLKSGTASVVCLLNNFYPREAKVQWKVDNALQSGNSQESVTEQDSKDSTYSLSSTLTLSKADYEKHKVYACEVTHQGLSSPVTKSFNRGEC
notes: scFv at the N-terminus of the chimeric 14A2 IgG1 heavy chain; For signal peptides see m17; also called XWU028; pXWU028
B3: BHA10 scFv VH44:VL100/(Gly4Ser)4 C-Hercules bispecific antibody (bispecific antibody, human IgG1, kappa)
heavy: not shown
light: QLVLTQSSSVSFSLGASAKLTCTLSSQHSTYTIEWYQQQPLKPPKYVMELKKDGSHSTGDGIPDRFSGSSSGADRYLSISNIQPEDEAIYICGVGDTIKEQFVYVFGGGTKVEIKRTVAAPSVFIFPPSDEQLKSGTASVVCLLNNFYPREAKVQWKVDNALQSGNSQESVTEQDSKDSTYSLSSTLTLSKADYEKHKVYACEVTHQGLSSPVTKSFNRGEC
notes: scFv at the C-terminus of the chimeric 14A2 IgG1 heavy chain; For signal peptides see m17; also called XWU036; pXWU036
B4: BHA10 scFv VH44:VL100 C-Hercules bispecific antibody (bispecific antibody, human IgG1, kappa)
heavy: not shown
light: QLVLTQSSSVSFSLGASAKLTCTLSSQHSTYTIEWYQQQPLKPPKYVMELKKDGSHSTGDGIPDRFSGSSSGADRYLSISNIQPEDEAIYICGVGDTIKEQFVYVFGGGTKVEIKRTVAAPSVFIFPPSDEQLKSGTASVVCLLNNFYPREAKVQWKVDNALQSGNSQESVTEQDSKDSTYSLSSTLTLSKADYEKHKVYACEVTHQGLSSPVTKSFNRGEC
notes: BHA10 scFv joined by a Ser(Gly4Ser)3 linker to the C-terminus of the chimeric 14A2 IgG1 heavy chain; For signal peptides see m17; also called C-Hercules with VH44:VL100 BHA10 scFv; C-"Hercules" Cys
B5: BHA10 scFv VL-S46L, (G4S)4 linker (scFv)
scFv: QVQLVQSGAEVKKPGSSVKVSCKASGYTFTTYYLHWVRQAPGQGLEWMGWIYPGNVHAQYNEKFKGRVTITADKSTSTAYMELSSLRSEDTAVYYCARSWEGFPYWGQGTTVTVSSGGGGSGGGGSGGGGSGGGGSDIQMTQSPSSLSASVGDRVTITCKASQNVGINVAWYQQKPGKAPKLLISSASYRYSGVPSRFSGSGSGTDFTLTISSLQPEDFATYFCQQYDTYPFTFGQGTKVEIKDDDDKSFLEQKLISEEDLNSAVDHHHHHH
notes: also called 072 VL-S46L; pIEH029
B6: IEH031 (GS4 + SS + VL S46L) (scFv)
scFv: QVQLVQSGAEVKKPGSSVKVSCKASGYTFTTYYLHWVRQAPGQCLEWMGWIYPGNVHAQYNEKFKGRVTITADKSTSTAYMELSSLRSEDTAVYYCARSWEGFPYWGQGTTVTVSSGGGGSGGGGSGGGGSGGGGSDIQMTQSPSSLSASVGDRVTITCKASQNVGINVAWYQQKPGKAPKLLISSASYRYSGVPSRFSGSGSGTDFTLTISSLQPEDFATYFCQQYDTYPFTFGCGTKVEIKDDDDKSFLEQKLISEEDLNSAVDHHHHHH
modifications: chain 1: engineered disulfide bond between Cys at pos 44 (VH Kabat 44) and Cys at pos 236 (VL Kabat 100)
notes: also called pIEH031; BHA10 scFv VH44-VL100 disulfide, (Gly4Ser)4 linker, VL S46L
B7: BHA10 scFv VH-V55G, (G4S)4 linker (scFv)
scFv: QVQLVQSGAEVKKPGSSVKVSCKASGYTFTTYYLHWVRQAPGQGLEWMGWIYPGNGHAQYNEKFKGRVTITADKSTSTAYMELSSLRSEDTAVYYCARSWEGFPYWGQGTTVTVSSGGGGSGGGGSGGGGSGGGGSDIQMTQSPSSLSASVGDRVTITCKASQNVGINVAWYQQKPGKAPKSLISSASYRYSGVPSRFSGSGSGTDFTLTISSLQPEDFATYFCQQYDTYPFTFGQGTKVEIKDDDDKSFLEQKLISEEDLNSAVDHHHHHH
notes: also called 079 VH-V55G; pIEH070
B8: BHA10 (Gly4Ser)4 scFv (scFv)
scFv: QVQLVQSGAEVKKPGSSVKVSCKASGYTFTTYYLHWVRQAPGQGLEWMGWIYPGNVHAQYNEKFKGRVTITADKSTSTAYMELSSLRSEDTAVYYCARSWEGFPYWGQGTTVTVSSGGGGSGGGGSGGGGSGGGGSDIQMTQSPSSLSASVGDRVTITCKASQNVGINVAWYQQKPGKAPKSLISSASYRYSGVPSRFSGSGSGTDFTLTISSLQPEDFATYFCQQYDTYPFTFGQGTKVEIK
notes: His-tagged (captured through anti-PENTA-His); also called Wild-type, (G4S)*4 linker; GS4

Tests used:
LTβR-Ig [1] = biological target: T1, LTβR-Ig (UniProt P36941 31-227, limits assumed); assay: bispecific sandwich ELISA: LTβR-Ig coated on the plate, purified antibody titrated, then TRAIL-R2 Fc 6X-His, detection with anti-His HRP conjugate; signal needs binding to both receptors
T1 construct: extracellular domain; also called LTβR Ig receptor; recombinantly produced LTβR receptor; not shown: human Fc region
T1 sequence (P36941 31-227 limits assumed): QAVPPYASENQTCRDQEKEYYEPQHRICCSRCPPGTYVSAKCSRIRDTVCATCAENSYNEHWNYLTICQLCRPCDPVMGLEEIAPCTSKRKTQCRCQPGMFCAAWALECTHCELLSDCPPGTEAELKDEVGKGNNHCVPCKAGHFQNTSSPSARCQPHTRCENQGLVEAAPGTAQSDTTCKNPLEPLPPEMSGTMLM

sLTβR [2] = biological target: T2, sLTβR (UniProt P36941 31-227, limits assumed); assay: SPR (Biacore 3000)
T2 construct: Used in solution in ITC and as the analyte in SPR; also called soluble lymphotoxin beta receptor; antigen
T2 sequence (P36941 31-227 limits assumed): as above

LTβR-Ig [3] = biological target: T1, LTβR-Ig; assay: thermal challenge assay, remaining binding to plate-coated LTβR-Ig read by DELFIA; unit taken from the x axis
sLTβR [4] = biological target: T2, sLTβR; assay: SPR (Biacore 3000), scFv captured on anti-PENTA-His, sLTβR as analyte, 1:1 Langmuir fit
Experimental: All experiments were performed in HBS-EP buffer, pH 7.4. […] 0.1 μM solutions of test scFvs were injected over the chip at a flow rate of 5 μl/min for 10 minutes and captured onto the surface via the immobilized PENTA-His antibody. To investigate binding between sLTβR and captured scFv, a concentration series of sLTβR (1, 2, 5, 10, 25, 50, 100, and 200 nM) was double injected at a flow rate of 30 μl/min onto the scFv-coated surface. Background was subtracted from test sample sensorgrams using sensorgram data from a flow cell containing buffer only and sensorgram data from the PENTA-His surface where scFv was injected followed by an injection of buffer instead of sLTβR. The curves were analyzed using the BiaEval 3.0 manufacturer's software. KD values were calculated by fitting kinetic association and dissociation curves to a 1:1 Langmuir binding model. Chip surfaces were regenerated by two consecutive 10 μL injections of 0.1 M glycine, pH 3.0.

LTβR-Ig [5] = biological target: T1, LTβR-Ig; assay: thermal challenge assay; T50 = temperature at which 50% of the molecules keep binding to plate-coated LTβR-Ig (DELFIA); unit taken from the x axis
Experimental: An aliquot of the supernatant was reserved for the reference DELFIA. […] For screens requiring multiple challenge temperatures (or for temperatures greater than 75° C.) the supernatants were transferred to 96-well PCR plates (Applied Biosystems, Foster City, Calif., Cat. # N801-560) and incubated for 90 minutes at the desired temperature.
After thermal challenge, the samples were centrifuged at 2,000 RPM to remove aggregated material. Soluble BHA10 scFv samples remaining in the treated, cleared supernatant were assayed for binding to cognate LTβR Ig antigen by DELFIA assay. […] Plates were coated overnight at 4° C., and blocked with DELFIA assay buffer (DAB, 10 mM Tris HCl, 150 mM NaCl, 20 μM EDTA, 0.5% BSA, 0.02% Tween 20, 0.01% NaN₃, pH 7.4) for one hour with shaking at room temperature. Plates were washed 3 times with DAB without BSA (Wash buffer), and test samples diluted in DAB were added to the plates in a final volume of 100 μl. The plates were incubated for one hour with shaking at room temperature, and then washed 3 times with Wash buffer to remove unbound and functionally inactivated scFv molecules. Bound BHA10 scFv was detected by addition of 100 μl per well of DAB containing 40 ng/ml of Eu-labeled anti-His₆ antibody (Perkin Elmer, Boston, Mass., Cat. # AD0109) and incubated at room temperature with shaking for one hour.

Binder | EC50 (LTβR-Ig [1]) | Kd (sLTβR [2]) | also measured
B1 | 0.041 µg/mL |  | 
B2 | 0.055 µg/mL |  | 
B3 | 0.086 µg/mL |  | 
B4 | 0.087 µg/mL |  | 
B5 |  | 4 nM | midpoint temperature of the thermal challenge curve (T50) (LTβR-Ig [3]): 60.3 °C
B6 |  |  | midpoint temperature of the thermal challenge curve (T50) (LTβR-Ig [3]): 72.3 °C
B7 |  | 2.2 nM | 
B8 |  | 2.1 nM | Kd (sLTβR [4]): 2.5 nM; T50 (LTβR-Ig [5]): 53 °C
